What all share (experiment): cell-based or functional assay
Experiment [1] concerns the target HIV-1 Env of isolate MGRM-A-002 (HIV-1).
Experiment [2] concerns the target HIV-1 Env of isolate MGRM-A-004 (HIV-1).
The target in experiment [3] is HIV-1 MGRM-C-027 envelope glycoprotein (Env) (HIV-1).
Experiment [4] has as its target HIV-1 Env of isolate MGRM-A-008 (HIV-1).
Experiment [5] addresses HIV-1 JR-CSF Env T297A (HIV-1 JR-CSF) (UniProt P20871).
The target of experiment [6] is HIV-1 MGRM-C-026 envelope glycoprotein (Env) (HIV-1).
In experiment [7] the target is HIV-1 APV17 envelope glycoprotein (Env) (HIV-1).
In experiment [8] the target is HIV-1 JR-CSF Env D325A (HIV-1 isolate JR-CSF) (UniProt P20871).
Experiment [9] deals with HIV-1 APV13 envelope glycoprotein (Env) (HIV-1).
Experiment [10] addresses HIV-1 JR-CSF Env N301A (HIV-1 JR-CSF) (UniProt P20871).
Experiment [11] concerns the target HIV-1 JR-CSF Env P313A (HIV-1 JR-CSF) (UniProt P20871).
Experiment [12] has as its target HIV-1 Env of isolate MGRM-A-009 (HIV-1).
For experiment [13], the target named is HIV-1 JR-CSF Env S387A (HIV-1 (isolate JR-CSF)) (UniProt P20871).
Experiment [14] has as its target HIV-1 JR-CSF Env T319A (HIV-1 isolate JR-CSF) (UniProt P20871).
Experiment [15] has as its target HIV-1 JR-CSF Env P299A (HIV-1 JR-CSF) (UniProt P20871).
The target of experiment [16] is HIV-1 JR-CSF Env I307A (HIV-1 JR-CSF) (UniProt P20871).
The target of experiment [17] is HIV-1 JR-CSF Env T303A (HIV-1 JR-CSF) (UniProt P20871).
For experiment [18], the target named is HIV-1 JR-CSF Env I309A (HIV-1 JR-CSF) (UniProt P20871).
The target of experiment [19] is HIV-1 NL43 envelope glycoprotein (Env) (HIV-1).
Experiment [20] has as its target HIV-1 JR-CSF Env T394A (HIV-1 (isolate JR-CSF)) (UniProt P20871).
Experiment [21] deals with HIV-1 JR-CSF Env W395A (HIV-1 (isolate JR-CSF)) (UniProt P20871).

Take PGT-121 (antibody): the IC50 (µg/mL), pseudovirus neutralization in experiment [1] is 0.013 µg/mL; in experiment [2], above 50 µg/mL; in [4], above 50 µg/mL; in experiment [12], 0.006 µg/mL. For the same substance, the IC50 neutralization was 0.0094 µg/mL in experiment [3]; 0.0034 µg/mL in experiment [6]; 0.095 µg/mL in experiment [7]; 0.316 µg/mL in experiment [9]; above 10 µg/mL in experiment [19]. The Fold IC50 increase relative to wild-type in experiment [5] was 0.7 fold; in experiment [8] it was 2 fold; in experiment [10], 0.4 fold; in experiment [11], 0.5 fold; in experiment [13] it was 0.5 fold; in experiment [14] it was 1.3 fold. The Fold IC50 increase relative to wild-type amounted to 0.2 fold in [15]; 3.7 fold in [16]; 0.7 fold in [17]; 1.1 fold in experiment [18]; 0.2 fold in experiment [20]; 0.5 fold in [21].
With PGT-122 (antibody), the IC50 (µg/mL), pseudovirus neutralization in experiment [1] is 0.017 µg/mL; in experiment [2], above 50 µg/mL; in experiment [4], above 50 µg/mL; in experiment [12] it was 0.012 µg/mL. For the same substance, the IC50 neutralization in experiment [3] was 0.0388 µg/mL; in experiment [6] it was 0.0089 µg/mL; in experiment [7] it was 0.522 µg/mL; in experiment [9], 0.992 µg/mL; in experiment [19], above 10 µg/mL. The Fold IC50 increase relative to wild-type in experiment [5] is 0.6 fold; in experiment [8], 44 fold; in experiment [10] it was 0.4 fold; in experiment [11] it was 0.4 fold; in experiment [13] it was 0.9 fold; in experiment [14], 0.5 fold. Further, the Fold IC50 increase relative to wild-type was 0.5 fold in experiment [15]; 3.8 fold in [16]; 2.5 fold in [17]; 2.1 fold in experiment [18]; 0.6 fold in experiment [20]; 0.4 fold in experiment [21].

(Values after patent US20200024330A1.)
